One test has as its target T1, human PD-1-His (human, UniProt Q15116 25-167, limits assumed).
T1 construct: not shown: His tag
Description: Octet BLI; antibody captured on anti-human Fc (AHC) biosensors, dipped into PD-1-His.

Another test concerns the target T2, PD-1-His (UniProt Q15116 25-167, limits assumed).
T2 construct: Captured on HIS1K biosensors; not shown: His tag
Put plainly: Octet affinity screen; bivalent IgG1 format. The text has this: We engineered affinity optimized variants of mAb C. A library of variants was constructed by standard mutagenesis to introduce point mutations into the variable heavy or variable light regions of XENP28536. Illustrative sequences are depicted in FIG. 70A-FIG. 70I (variable domain sequences).
(In BLI a coated tip is dipped into the sample, and binding shifts an interference pattern.)

T2 sequence (Q15116 25-167 limits assumed): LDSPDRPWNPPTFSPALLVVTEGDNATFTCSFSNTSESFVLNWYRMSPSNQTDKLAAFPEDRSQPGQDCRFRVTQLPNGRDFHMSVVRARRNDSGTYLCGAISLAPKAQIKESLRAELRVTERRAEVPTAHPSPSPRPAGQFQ
T1 sequence (Q15116 25-167 limits assumed): as above

B1: XENP28536 (antibody, human IgG1, kappa, V domains shown)
VH: EVQLVESGGGLVQPGGSLRLSCAASGFTFSSFGMHWVRQAPGKGLEWVSYISSGSSIIYYADSVKGRFTISRDNAKNSLYLQMNSLRAEDTAVYYCARGGRLVWSPDYWGQGTLVTVSS
VL: DIVMTQSPDSLAVSLGERATINCKSSQSLLNSGNQKNYLTWYQQKPGQPPKLLIYWASTRESGVPDRFTGSGSGTDFTLTISSLQAEDVAVYYCQNDYSYPFTFGSGTKLEIKR
notes: Format is bivalent human IgG1 with E233P/L234V/L235A/G236del/S267K; also called mAb C; mAb C[PD-1]_H1L1
As to B1, the binding result in the test with human PD-1-His is “binds”.

B2: mAb C[PD-1]_H1_L1.1 (antibody, IgG1, V domains shown)
VH: EVQLVESGGGLVQPGGSLRLSCAASGFTFSSFGMHWVRQAPGKGLEWVSYISSGSSIIYYADSVKGRFTISRDNAKNSLYLQMNSLRAEDTAVYYCARGGRLVWSPDYWGQGTLVTVSS
VL: DIVMTQSPDSLAVSLGERATINCKSSQSLLHSGNQKNYLTWYQQKPGQPPKLLIYWASTRESGVPDRFTGSGSGTDFTLTISSLQAEDVAVYYCQNDYSYPFTFGSGTKLEIK
For the molecule B2, in the test with PD-1-His, the “fold improved affinity over WT (mAb C[PD-1]_H1L1)” value is > 2 fold.

B3: mab_C[PD-1]_H1_L1.3 (antibody, IgG1, V domains shown)
VH: EVQLVESGGGLVQPGGSLRLSCAASGFTFSSFGMHWVRQAPGKGLEWVSYISSGSSIIYYADSVKGRFTISRDNAKNSLYLQMNSLRAEDTAVYYCARGGRLVWSPDYWGQGTLVTVSS
VL: DIVMTQSPDSLAVSLGERATINCKSSQSLLSSGNQKNYLTWYQQKPGQPPKLLIYWASTRESGVPDRFTGSGSGTDFTLTISSLQAEDVAVYYCQNDYSYPFTFGSGTKLEIK
Consider B3, for which the “fold improved affinity over WT (mAb C[PD-1]_H1L1)” value with PD-1-His was > 2 fold.

The record behind these values is patent US20210355185A1 (Xencor, published 2021).
